What was measured:
[1] = target: Human EphA2 (ephrin receptor A2), native, in human tumor tissue (human) (UniProt P29317); assay: IF tumor tissue NSCLC-Adeno, 30 ug/ml
[2] = target: Human EphA2 (ephrin receptor A2), native, in human tumor tissue (human) (UniProt P29317); assay: IF tumor tissue MELA, 1 ug/ml
[3] = target: Human EphA2 (ephrin receptor A2), native, in human tumor tissue (human) (UniProt P29317); assay: IF tumor tissue RCC-papillary, 10 ug/ml
[4] = target: Human EphA2 (ephrin receptor A2), native, in human tumor tissue (human) (UniProt P29317); assay: IF tumor tissue ESO, 1 ug/ml
[5] = target: Human EphA2 (ephrin receptor A2), native, in human tumor tissue (human) (UniProt P29317); assay: IF tumor tissue STS, 0.1 ug/ml
[6] = target: Human EphA2 (ephrin receptor A2), native, in human tumor tissue (human) (UniProt P29317); assay: IF tumor tissue NSCLC-SQ, 10 ug/ml
[7] = target: Human EphA2 (ephrin receptor A2), native, in human tumor tissue (human) (UniProt P29317); assay: IF tumor tissue ESO, 0.1 ug/ml
[8] = target: Human EphA2 (ephrin receptor A2), native, in human tumor tissue (human) (UniProt P29317); assay: IF tumor tissue STS, 30 ug/ml
[9] = target: Human EphA2 (ephrin receptor A2), native, in human tumor tissue (human) (UniProt P29317); assay: IF tumor tissue NSCLC-Adeno, 1 ug/ml
[10] = target: Human EphA2 (ephrin receptor A2), native, in human tumor tissue (human) (UniProt P29317); assay: IF tumor tissue PANC, 0.1 ug/ml
[11] = target: Human EphA2 (ephrin receptor A2), native, in human tumor tissue (human) (UniProt P29317); assay: IF tumor tissue NSCLC-SQ, 0.3 ug/ml
[12] = target: Human EphA2 (ephrin receptor A2), native, in human tumor tissue (human) (UniProt P29317); assay: IF tumor tissue PANC, 30 ug/ml
[13] = target: Human EphA2 (ephrin receptor A2), native, in human tumor tissue (human) (UniProt P29317); assay: IF tumor tissue PANC, 0.3 ug/ml
[14] = target: Human EphA2 (ephrin receptor A2), native, in human tumor tissue (human) (UniProt P29317); assay: IF tumor tissue RCC-papillary, 1 ug/ml
[15] = target: Human EphA2 (ephrin receptor A2), native, in human tumor tissue (human) (UniProt P29317); assay: IF tumor tissue PANC, 3 ug/ml
[16] = target: Human EphA2 (ephrin receptor A2), native, in human tumor tissue (human) (UniProt P29317); assay: IF tumor tissue Uterine, 10 ug/ml
[17] = target: Human EphA2 (ephrin receptor A2), native, in human tumor tissue (human) (UniProt P29317); assay: IF tumor tissue URO, 0.3 ug/ml
[18] = target: Human EphA2 (ephrin receptor A2), native, in human tumor tissue (human) (UniProt P29317); assay: IF tumor tissue STS, 3 ug/ml
[19] = target: Human EphA2 (ephrin receptor A2), native, in human tumor tissue (human) (UniProt P29317); assay: IF tumor tissue ESO, 10 ug/ml
[20] = target: Human EphA2 (ephrin receptor A2), native, in human tumor tissue (human) (UniProt P29317); assay: IF tumor tissue NSCLC-Adeno, 10 ug/ml
[21] = target: Human EphA2 (ephrin receptor A2), native, in human tumor tissue (human) (UniProt P29317); assay: IF tumor tissue ESO, 0.3 ug/ml
[22] = target: Human EphA2 (ephrin receptor A2), native, in human tumor tissue (human) (UniProt P29317); assay: IF tumor tissue NSCLC-Adeno, 3 ug/ml
[23] = target: Human EphA2 (ephrin receptor A2), native, in human tumor tissue (human) (UniProt P29317); assay: IF tumor tissue STS, 1 ug/ml
[24] = target: Human EphA2 (ephrin receptor A2), native, in human tumor tissue (human) (UniProt P29317); assay: tissue staining of human cancer samples, 3 ug/ml
[25] = target: Human EphA2 (ephrin receptor A2), native, in human tumor tissue (human) (UniProt P29317); assay: IF tumor tissue NSCLC-SQ, 30 ug/ml
[26] = target: Human EphA2 (ephrin receptor A2), native, in human tumor tissue (human) (UniProt P29317); assay: IF tumor tissue RCC-papillary, 3 ug/ml
[27] = target: Human EphA2 (ephrin receptor A2), native, in human tumor tissue (human) (UniProt P29317); assay: IF tumor tissue RCC-papillary, 30 ug/ml
[28] = target: Human EphA2 (ephrin receptor A2), native, in human tumor tissue (human) (UniProt P29317); assay: IF tumor tissue NSCLC-Adeno, 0.1 ug/ml
[29] = target: Human EphA2 (ephrin receptor A2), native, in human tumor tissue (human) (UniProt P29317); assay: IF tumor tissue PANC, 1 ug/ml
[30] = target: Human EphA2 (ephrin receptor A2), native, in human tumor tissue (human) (UniProt P29317); assay: IF tumor tissue URO, 10 ug/ml
[31] = target: Human EphA2 (ephrin receptor A2), native, in human tumor tissue (human) (UniProt P29317); assay: IF tumor tissue MELA, 10 ug/ml
[32] = target: Human EphA2 (ephrin receptor A2), native, in human tumor tissue (human) (UniProt P29317); assay: IF tumor tissue MELA, 30 ug/ml
[33] = target: Human EphA2 (ephrin receptor A2), native, in human tumor tissue (human) (UniProt P29317); assay: IF tumor tissue Uterine, 1 ug/ml

Chain of Human EphA2 (ephrin receptor A2), native, in human tumor tissue (human) (P29317 25-976): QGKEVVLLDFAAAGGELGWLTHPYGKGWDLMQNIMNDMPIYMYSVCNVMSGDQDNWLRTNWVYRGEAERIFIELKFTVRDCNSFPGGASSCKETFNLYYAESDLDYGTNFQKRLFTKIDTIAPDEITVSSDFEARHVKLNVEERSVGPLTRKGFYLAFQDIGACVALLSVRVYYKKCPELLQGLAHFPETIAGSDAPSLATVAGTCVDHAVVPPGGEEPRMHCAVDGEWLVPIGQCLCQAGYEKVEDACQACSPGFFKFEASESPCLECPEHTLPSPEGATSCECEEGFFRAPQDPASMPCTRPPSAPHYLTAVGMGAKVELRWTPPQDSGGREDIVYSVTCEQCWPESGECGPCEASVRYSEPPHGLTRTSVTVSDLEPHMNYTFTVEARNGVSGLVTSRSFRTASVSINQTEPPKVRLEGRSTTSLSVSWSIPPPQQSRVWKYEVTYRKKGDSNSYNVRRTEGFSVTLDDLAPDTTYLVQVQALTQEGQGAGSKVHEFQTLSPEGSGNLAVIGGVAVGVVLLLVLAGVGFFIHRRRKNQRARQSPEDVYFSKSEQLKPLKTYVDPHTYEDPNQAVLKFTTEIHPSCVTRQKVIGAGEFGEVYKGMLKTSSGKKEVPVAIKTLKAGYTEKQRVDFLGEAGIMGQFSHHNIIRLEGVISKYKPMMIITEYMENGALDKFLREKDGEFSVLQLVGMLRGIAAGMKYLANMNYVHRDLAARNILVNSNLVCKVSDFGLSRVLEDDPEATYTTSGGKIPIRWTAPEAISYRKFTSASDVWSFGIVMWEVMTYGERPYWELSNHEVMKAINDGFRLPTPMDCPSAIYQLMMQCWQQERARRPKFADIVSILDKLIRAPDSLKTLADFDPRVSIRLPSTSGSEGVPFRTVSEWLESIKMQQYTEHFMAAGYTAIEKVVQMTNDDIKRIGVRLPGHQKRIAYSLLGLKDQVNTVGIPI

AB-010018 (mouse monoclonal antibody precursor of DS-8895a; mouse IgG2a format)
tissue reactivity score [1]: 1 | tissue reactivity score [2]: 2 | tissue reactivity score [3]: 2 | tissue reactivity score [4]: 1 | tissue reactivity score [5]: 1 | tissue reactivity score [6]: 1 | tissue reactivity score [7]: 1 | tissue reactivity score [8]: 2 | tissue reactivity score [9]: 1 | tissue reactivity score [10]: 2 | tissue reactivity score [11]: 1 | tissue reactivity score [12]: 2 | tissue reactivity score [13]: 2 | tissue reactivity score [14]: 1 | tissue reactivity score [15]: 2 | tissue reactivity score [16]: 2 | tissue reactivity score [17]: 2 | tissue reactivity score [18]: 1 | tissue reactivity score [19]: 1 | tissue reactivity score [20]: 1 | tissue reactivity score [21]: 1 | tissue reactivity score [22]: 1 | tissue reactivity score [23]: 1 | Reactive (% of samples), Bladder Urothelial Carcinoma [24]: 77% | Reactive (% of samples), Breast Cancer [24]: 93% | Reactive (% of samples), Cervical Squamous Cell Carcinoma [24]: 75% | Reactive (% of samples), Colorectal Adenocarcinoma [24]: 85% | Reactive (% of samples), Head & Neck Squamous Cell Carcinoma [24]: 63% | Reactive (% of samples), Liver Hepatocellular Cell Carcinoma [24]: 39% | Reactive (% of samples), Melanoma [24]: 46% | Reactive (% of samples), Ovarian Cancer [24]: 71% | Reactive (% of samples), Soft Tissue Sarcoma [24]: 14% | Reactive (% of samples), Stomach Adenocarcinoma [24]: 88% | Reactive (% of samples), Testicular Cancer [24]: 17% | Reactive (% of samples), Thyroid Cancer [24]: 13% | Reactive (% of samples), Uterine Cancer [24]: 38% | tissue reactivity score [25]: 2 | tissue reactivity score [26]: 2 | tissue reactivity score [27]: 2 | tissue reactivity score [28]: 1 | tissue reactivity score [29]: 2 | tissue reactivity score [30]: 2 | tissue reactivity score [31]: 2 | tissue reactivity score [32]: 2 | tissue reactivity score [33]: 2
